This note sets out measurements from patent US20240052065A1 (Boehringer Ingelheim, published 2024).

Experiment [1] concerns the target T1, recombinant human CDH3, full-length (human, UniProt P22223 108-654, limits assumed).
T1 construct: also called HuCDH3 full-length; human full-length CDH3
Put plainly: SPR (ProteOn XPR36), bispecific captured on protein A/G, CDH3 as analyte, 1:1 Langmuir fit.
Experimental: (§1) The binding affinity of purified CDH3/TRAILR2 bispecific constructs for recombinant human CDH3 (either full-length, EC1-EC2 or EC2-EC3) was determined by Surface Plasmon Resonance (SPR), using a ProteOn XPR36 instrument (Bio-Rad). The running buffer and all dilutions (except where stated) were done in PBS-TEDTA. The GLM sensor chip (Bio-Rad) was normalized and pre-conditioned as per the manufacturers recommendations. The sensor chip was activated with equal mixture of EDC/s-NHS in the horizontal direction for 300 sec at a flow rate of 30 μl/min and immobilized with protein A/G (60 μg/ml in 10 mM acetate pH 4.5) in the horizontal direction for 300 sec at a flowrate of 30 μl/min resulting in 5000 RU of protein A/G on the surface. The sensor chip was deactivated with 1 M ethanolamine HCl in the horizontal direction for 300 sec at a flowrate of 30 μl/min.
(§2) For binding kinetic determination to CDH3, bispecific molecules were captured individually on the protein A/G surface vertically for 150 sec at a flowrate of 30 μl/min. The baseline was stabilized by injecting PBS-T-EDTA for 60 sec at a flowrate of 100 μl/min horizontally. The analyte (human full-length CDH3, CDH3 [EC1-EC2] or CDH3 [EC2-EC3]) was injected horizontally over the captured antibody for 300 sec at a flowrate of 30 μl/min and a dissociation for 1200 sec. The concentration of the analytes injected was 200 nM for the full-length CDH3 and 500 nM for EC1-EC2 and EC2-EC3.

In experiment [2] the target is T2, recombinant human CDH3 [EC1-EC2] (human, UniProt P22223 108-328, limits assumed).
T2 construct: also called HuCDH3 EC1-EC2
Described as above.
Experimental: as §1, §2

Experiment [3] has as its target T3, recombinant human CDH3 [EC2-EC3] (human, UniProt P22223 216-440, limits assumed).
T3 construct: no separate entry is named for EC3; also called HuCDH3_EC2-EC3; EC2-EC3 peptide
Put plainly: SPR (ProteOn XPR36), bispecific captured on protein A/G, CDH3 EC2-EC3 as analyte.

B1: bispecific binding molecule CDH3/TRAILR2v2 (bispecific antibody, human IgG1, kappa, L234A L235A)
heavy: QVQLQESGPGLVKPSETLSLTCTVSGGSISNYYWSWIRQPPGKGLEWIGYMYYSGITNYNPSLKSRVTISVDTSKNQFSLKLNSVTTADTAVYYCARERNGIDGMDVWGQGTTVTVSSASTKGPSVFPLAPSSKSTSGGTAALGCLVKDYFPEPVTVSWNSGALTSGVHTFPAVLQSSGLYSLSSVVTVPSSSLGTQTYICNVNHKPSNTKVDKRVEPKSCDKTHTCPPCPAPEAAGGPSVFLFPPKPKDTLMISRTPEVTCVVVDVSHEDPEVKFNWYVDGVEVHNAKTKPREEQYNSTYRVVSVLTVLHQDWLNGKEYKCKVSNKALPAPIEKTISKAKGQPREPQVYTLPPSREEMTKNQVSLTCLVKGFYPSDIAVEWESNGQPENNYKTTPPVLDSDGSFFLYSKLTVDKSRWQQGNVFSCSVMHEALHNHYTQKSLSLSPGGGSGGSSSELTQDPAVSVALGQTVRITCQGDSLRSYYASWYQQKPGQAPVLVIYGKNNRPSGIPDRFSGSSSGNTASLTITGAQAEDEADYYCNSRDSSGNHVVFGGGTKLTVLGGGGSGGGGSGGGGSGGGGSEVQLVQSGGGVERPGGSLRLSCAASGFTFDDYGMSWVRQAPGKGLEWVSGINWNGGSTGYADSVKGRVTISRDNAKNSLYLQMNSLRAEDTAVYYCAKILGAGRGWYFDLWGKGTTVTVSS
light: DIVMTQSPLSLPVTPGEPASISCRSSQSLLHSYGYNYLDWYLQKPGQSPQLLIYLGSNRASGVPDRFSGSGSGTDFTLKISRVEAEDFGIYYCMQALQTPITFGQGTRLEIKRTVAAPSVFIFPPSDEQLKSGTASVVCLLNNFYPREAKVQWKVDNALQSGNSQESVTEQDSKDSTYSLSSTLTLSKADYEKHKVYACEVTHQGLSSPVTKSFNRGEC
notes: also called CDH3/TR2v2
As for B1, the Kd in experiment [1] came out at 9.93 nM; in experiment [2] it was 11.4 nM. For the same molecule, in experiment [3], the binding result was “no binding (tested: 500 nM analyte)”.

B2: bispecific binding molecule CDH3/TRAILR2v3 (bispecific antibody, human IgG1, kappa, L234A L235A)
heavy: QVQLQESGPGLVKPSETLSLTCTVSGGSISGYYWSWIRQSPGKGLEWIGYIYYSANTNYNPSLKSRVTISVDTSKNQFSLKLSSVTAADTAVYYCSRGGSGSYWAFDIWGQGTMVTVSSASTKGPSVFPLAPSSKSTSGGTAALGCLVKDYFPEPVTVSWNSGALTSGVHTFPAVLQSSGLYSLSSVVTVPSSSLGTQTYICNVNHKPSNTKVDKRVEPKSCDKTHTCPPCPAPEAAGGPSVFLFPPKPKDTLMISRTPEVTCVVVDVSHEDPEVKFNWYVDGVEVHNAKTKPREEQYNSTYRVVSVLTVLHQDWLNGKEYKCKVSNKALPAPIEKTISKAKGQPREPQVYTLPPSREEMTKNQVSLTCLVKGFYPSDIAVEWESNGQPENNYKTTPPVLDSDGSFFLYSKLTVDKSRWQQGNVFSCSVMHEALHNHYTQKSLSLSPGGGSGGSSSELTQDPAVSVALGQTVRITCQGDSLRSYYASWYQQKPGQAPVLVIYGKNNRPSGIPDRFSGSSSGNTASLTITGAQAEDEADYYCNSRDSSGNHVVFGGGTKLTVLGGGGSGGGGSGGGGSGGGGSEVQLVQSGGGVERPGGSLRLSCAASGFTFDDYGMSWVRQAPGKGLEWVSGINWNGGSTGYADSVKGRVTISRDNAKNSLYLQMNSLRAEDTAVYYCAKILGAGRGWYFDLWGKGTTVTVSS
light: DIVMTQSPLSLPVTPGEPASISCRSSQSLMYSYGYNYLDWYLQKPGQSPQLLIYLGSNRASGVPDRFSGSGSGTDFTLKISRVEAEDVGIYYCMQALQTPPTFGQGTKVEIKRTVAAPSVFIFPPSDEQLKSGTASVVCLLNNFYPREAKVQWKVDNALQSGNSQESVTEQDSKDSTYSLSSTLTLSKADYEKHKVYACEVTHQGLSSPVTKSFNRGEC
notes: also called CDH3/TR2v3
For B2, the Kd in experiment [1] turned out to be 1.08 nM; in experiment [2], 0.85 nM. In addition, in experiment [3], the binding result was “no binding (tested: 500 nM analyte)”.

For orientation: Kd means the equilibrium constant for the complex coming apart.
